Laboratory results published in article PMC4756287.

How the values were obtained:
[1] = molecular target: Lhcb1,2 (major components of LHCII trimers); test: native gel or EMSA; BN-PAGE of purified LHCII trimers (3 μg of Chl) solubilized in 0.3, 0.6 and 1% α-DDM
[2] = molecular target: Lhcb1,2 (major components of LHCII trimers); test: native gel or EMSA; BN-PAGE (4-12.5%) followed by Tricine-SDS PAGE (2D-PAGE), Coomassie; isolated thylakoids, 8 μg Chl, 0.5 mg/ml Chl in 25 mM BisTris/HCl pH 7.0, 20% glycerol, solubilized with 1% α-DDM (0.6 and 1.5% as controls); plants grown under GL200, GL600, GL1800 or shifted 0.5, 2, 6 h to GL1800
[3] = molecular target: Photosystem II core (C) (Arabidopsis thaliana (endogenous in leaf thylakoids)) (UniProt P83755); test: as above

stoichiometry N [1]	stoichiometry N [2]	stoichiometry N [3]	Substance
3	3		Lhcb1,2 (major components of LHCII trimers)
		2	Photosystem II core (C) (from UniProt P83755 1-344; P56761 1-353; P56777 1-508; P56778 15-473; P23321 86-332) (complex)
